Article PMC8274477 (Frontiers in Cell and Developmental Biology, 2021)

target: T1, OTULIN (OTU deubiquitinase with linear linkage specificity, FAM105B), His-tagged, biotin-labelled (human, UniProt Q96BN8 1-352, biotin (label; sites not stated)); assay: peptide or protein array; HuProt human proteome microarray; 5 ug/5 ml biotin-labelled LUBAC or OTULIN in solution, 1 h at room temperature; Cy5-streptavidin, scanned at 635 nm; BSA as negative control; hits: Z-score >= 3 and I_(Mean_Ratio) >= 1.4; conditions: both partners purified
T1 construct: OTULIN (FAM105B), cDNA in pET28a; also called HIS-OTULIN; source: E. coli BL21 (DE3), purified (His-tag Purification Resin), labelled with biotin; not shown: His6, N-terminal, kept

Binder	binding result
SLC25A16 (natural protein, human, UniProt P16260 1-332, looked up, SLC25A16; protein on the human proteome microarray; source: spotted on the HuProt human proteome microarray) MAAATAAAALAAADPPPAMPQAAGAGGPTTRRDFYWLRSFLAGGIAGCCAKTTVAPLDRVKVLLQAHNHHYKHLGVFSALRAVPQKEGFLGLYKGNGAMMIRIFPYGAIQFMAFEHYKTLITTKLGISGHVHRLMAGSMAGMTAVICTYPLDMVRVRLAFQVKGEHSYTGIIHAFKTIYAKEGGFFGFYRGLMPTILGMAPYAGVSFFTFGTLKSVGLSHAPTLLGRPSSDNPNVLVLKTHVNLLCGGVAGAIAQTISYPFDVTRRRMQLGTVLPEFEKCLTMRDTMKYVYGHHGIRKGLYRGLSLNYIRCIPSQAVAFTTYELMKQFFHLN	binds
RALY (natural protein, human, UniProt Q9UKM9 1-306, looked up, RALY; protein on the human proteome microarray; source: spotted on the HuProt human proteome microarray) MSLKLQASNVTNKNDPKSINSRVFIGNLNTALVKKSDVETIFSKYGRVAGCSVHKGYAFVQYSNERHARAAVLGENGRVLAGQTLDINMAGEPKPDRPKGLKRAASAIYSGYIFDYDYYRDDFYDRLFDYRGRLSPVPVPRAVPVKRPRVTVPLVRRVKTNVPVKLFARSTAVTTSSAKIKLKSSELQAIKTELTQIKSNIDALLSRLEQIAAEQKANPDGKKKGDGGGAGGGGGGGGSGGGGSGGGGGGGSSRPPAPQENTTSEAGLPQGEARTRDDGDEEGLLTHSEEELEHSQDTDADDGALQ	binds
SPRR4 (natural protein, human, UniProt Q96PI1 1-79, looked up, SPRR4; protein on the human proteome microarray; source: spotted on the HuProt human proteome microarray) MSSQQQQRQQQQCPPQRAQQQQVKQPCQPPPVKCQETCAPKTKDPCAPQVKKQCPPKGTIIPAQQKCPSAQQASKSKQK	binds
SULT1B1 (natural protein, SULT1B1; protein on the human proteome microarray; source: spotted on the HuProt human proteome microarray) not shown	binds
QKI (natural protein, human, UniProt Q96PU8 1-341, looked up, QKI; protein on the human proteome microarray; source: spotted on the HuProt human proteome microarray) MVGEMETKEKPKPTPDYLMQLMNDKKLMSSLPNFCGIFNHLERLLDEEISRVRKDMYNDTLNGSTEKRSAELPDAVGPIVQLQEKLYVPVKEYPDFNFVGRILGPRGLTAKQLEAETGCKIMVRGKGSMRDKKKEEQNRGKPNWEHLNEDLHVLITVEDAQNRAEIKLKRAVEEVKKLLVPAAEGEDSLKKMQLMELAILNGTYRDANIKSPALAFSLAATAQAAPRIITGPAPVLPPAALRTPTPAGPTIMPLIRQIQTAVMPNGTPHPTAAIVPPGPEAGLIYTPYEYPYTLAPATSILEYPIEPSGVLGAVATKVRRHDMRVHPYQRIVTADRAATGN	binds
RBM3 (natural protein, human, UniProt P98179 1-157, looked up, RBM3; protein on the human proteome microarray; source: spotted on the HuProt human proteome microarray) MSSEEGKLFVGGLNFNTDEQALEDHFSSFGPISEVVVVKDRETQRSRGFGFITFTNPEHASVAMRAMNGESLDGRQIRVDHAGKSARGTRGGGFGAHGRGRSYSRGGGDQGYGSGRYYDSRPGGYGYGYGRSRDYNGRNQGGYDRYSGGNYRDNYDN	binds
RAB5A (natural protein, human, UniProt P20339 1-215, looked up, RAB5A; protein on the human proteome microarray; source: spotted on the HuProt human proteome microarray) MASRGATRPNGPNTGNKICQFKLVLLGESAVGKSSLVLRFVKGQFHEFQESTIGAAFLTQTVCLDDTTVKFEIWDTAGQERYHSLAPMYYRGAQAAIVVYDITNEESFARAKNWVKELQRQASPNIVIALSGNKADLANKRAVDFQEAQSYADDNSLLFMETSAKTSMNVNEIFMAIAKKLPKNEPQNPGANSARGRGVDLTEPTQPTRNQCCSN	binds
POP7 (natural protein, human, UniProt O75817 1-140, looked up, POP7; protein on the human proteome microarray; source: spotted on the HuProt human proteome microarray) MAENREPRGAVEAELDPVEYTLRKRLPSRLPRRPNDIYVNMKTDFKAQLARCQKLLDGGARGQNACSEIYIHGLGLAINRAINIALQLQAGSFGSLQVAANTSTVELVDELEPETDTREPLTRIRNNSAIHIRVFRVTPK	binds
SRA1 (natural protein, human, UniProt Q9HD15 1-224, looked up, SRA1; protein on the human proteome microarray; source: spotted on the HuProt human proteome microarray) MAELYVKPGNKERGWNDPPQFSYGLQTQAGGPRRSLLTKRVAAPQDGSPRVPASETSPGPPPMGPPPPSSKAPRSPPVGSGPASGVEPTSFPVESEAVMEDVLRPLEQALEDCRGHTRKQVCDDISRRLALLQEQWAGGKLSIPVKKRMALLVQELSSHRWDAADDIHRSLMVDHVTEVSQWMVGVKRLIAEKRSLFSEEAANEEKSAATAEKNHTIPGFQQAS	binds
RAB5C (natural protein, human, UniProt P51148 1-216, looked up, RAB5C; protein on the human proteome microarray; source: spotted on the HuProt human proteome microarray) MAGRGGAARPNGPAAGNKICQFKLVLLGESAVGKSSLVLRFVKGQFHEYQESTIGAAFLTQTVCLDDTTVKFEIWDTAGQERYHSLAPMYYRGAQAAIVVYDITNTDTFARAKNWVKELQRQASPNIVIALAGNKADLASKRAVEFQEAQAYADDNSLLFMETSAKTAMNVNEIFMAIAKKLPKNEPQNATGAPGRNRGVDLQENNPASRSQCCSN	binds
TAF9B (natural protein, human, UniProt Q9HBM6 1-251, looked up, TAF9B; protein on the human proteome microarray; source: spotted on the HuProt human proteome microarray) MESGKMAPPKNAPRDALVMAQILKDMGITEYEPRVINQMLEFAFRYVTTILDDAKIYSSHAKKPNVDADDVRLAIQCRADQSFTSPPPRDFLLDIARQKNQTPLPLIKPYAGPRLPPDRYCLTAPNYRLKSLIKKGPNQGRLVPRLSVGAVSSKPTTPTIATPQTVSVPNKVATPMSVTSQRFTVQIPPSQSTPVKPVPATTAVQNVLINPSMIGPKNILITTNMVSSQNTANEANPLKRKHEDDDDNDIM	binds
SULT1C2 (natural protein, human, UniProt O00338 1-296, looked up, SULT1C2; protein on the human proteome microarray; source: spotted on the HuProt human proteome microarray) MALTSDLGKQIKLKEVEGTLLQPATVDNWSQIQSFEAKPDDLLICTYPKAGTTWIQEIVDMIEQNGDVEKCQRAIIQHRHPFIEWARPPQPSGVEKAKAMPSPRILKTHLSTQLLPPSFWENNCKFLYVARNAKDCMVSYYHFQRMNHMLPDPGTWEEYFETFINGKVVWGSWFDHVKGWWEMKDRHQILFLFYEDIKRDPKHEIRKVMQFMGKKVDETVLDKIVQETSFEKMKENPMTNRSTVSKSILDQSISSFMRKGTVGDWKNHFTVAQNERFDEIYRRKMEGTSINFCMEL	binds
SDS (natural protein, human, UniProt P20132 1-328, looked up, SDS; protein on the human proteome microarray; source: spotted on the HuProt human proteome microarray) MMSGEPLHVKTPIRDSMALSKMAGTSVYLKMDSAQPSGSFKIRGIGHFCKRWAKQGCAHFVCSSAGNAGMAAAYAARQLGVPATIVVPSTTPALTIERLKNEGATVKVVGELLDEAFELAKALAKNNPGWVYIPPFDDPLIWEGHASIVKELKETLWEKPGAIALSVGGGGLLCGVVQGLQEVGWGDVPVIAMETFGAHSFHAATTAGKLVSLPKITSVAKALGVKTVGAQALKLFQEHPIFSEVISDQEAVAAIEKFVDDEKILVEPACGAALAAVYSHVIQKLQLEGNLRTPLPSLVVIVCGGSNISLAQLRALKEQLGMTNRLPK	binds

The next lines start with the values.

binding result	Binder
binds	PYCR2 (natural protein, human, UniProt Q96C36 1-320, looked up, PYCR2; protein on the human proteome microarray; source: spotted on the HuProt human proteome microarray) MSVGFIGAGQLAYALARGFTAAGILSAHKIIASSPEMNLPTVSALRKMGVNLTRSNKETVKHSDVLFLAVKPHIIPFILDEIGADVQARHIVVSCAAGVTISSVEKKLMAFQPAPKVIRCMTNTPVVVQEGATVYATGTHALVEDGQLLEQLMSSVGFCTEVEEDLIDAVTGLSGSGPAYAFMALDALADGGVKMGLPRRLAIQLGAQALLGAAKMLLDSEQHPCQLKDNVCSPGGATIHALHFLESGGFRSLLINAVEASCIRTRELQSMADQEKISPAALKKTLLDRVKLESPTVSTLTPSSPGKLLTRSLALGGKKD
binds	RPP25 (natural protein, human, UniProt Q9BUL9 1-199, looked up, RPP25; protein on the human proteome microarray; source: spotted on the HuProt human proteome microarray) MENFRKVRSEEAPAGCGAEGGGPGSGPFADLAPGAVHMRVKEGSKIRNLMAFATASMAQPATRAIVFSGCGRATTKTVTCAEILKRRLAGLHQVTRLRYRSVREVWQSLPPGPTQGQTPGEPAASLSVLKNVPGLAILLSKDALDPRQPGYQPPNPHPGPSSPPAAPASKRSLGEPAAGEGSAKRSQPEPGVADEDQTA
binds	PYCRL (natural protein, human, UniProt Q53H96 1-274, looked up, PYCRL; protein on the human proteome microarray; source: spotted on the HuProt human proteome microarray) MAAAEPSPRRVGFVGAGRMAGAIAQGLIRAGKVEAQHILASAPTDRNLCHFQALGCRTTHSNQEVLQSCLLVIFATKPHVLPAVLAEVAPVVTTEHILVSVAAGVSLSTLEELLPPNTRVLRVLPNLPCVVQEGAIVMARGRHVGSSETKLLQHLLEACGRCEEVPEAYVDIHTGLSGSGVAFVCAFSEALAEGAVKMGMPSSLAHRIAAQTLLGTAKMLLHEGQHPAQLRSDVCTPGGTTIYGLHALEQGGLRAATMSAVEAATCRAKELSRK
binds	AKR1C3 (natural protein, human, UniProt P42330 1-323, looked up, AKR1C3; protein on the human proteome microarray; source: spotted on the HuProt human proteome microarray) MDSKHQCVKLNDGHFMPVLGFGTYAPPEVPRSKALEVTKLAIEAGFRHIDSAHLYNNEEQVGLAIRSKIADGSVKREDIFYTSKLWSTFHRPELVRPALENSLKKAQLDYVDLYLIHSPMSLKPGEELSPTDENGKVIFDIVDLCTTWEAMEKCKDAGLAKSIGVSNFNRRQLEMILNKPGLKYKPVCNQVECHPYFNRSKLLDFCKSKDIVLVAYSALGSQRDKRWVDPNSPVLLEDPVLCALAKKHKRTPALIALRYQLQRGVVVLAKSYNEQRIRQNVQVFEFQLTAEDMKAIDGLDRNLHYFNSDSFASHPNYPYSDEY
binds	SRXN1 (natural protein, SRXN1; protein on the human proteome microarray; source: spotted on the HuProt human proteome microarray) not shown
binds	PDCD6 (natural protein, human, UniProt O75340 1-191, looked up, PDCD6; protein on the human proteome microarray; source: spotted on the HuProt human proteome microarray) MAAYSYRPGPGAGPGPAAGAALPDQSFLWNVFQRVDKDRSGVISDTELQQALSNGTWTPFNPVTVRSIISMFDRENKAGVNFSEFTGVWKYITDWQNVFRTYDRDNSGMIDKNELKQALSGFGYRLSDQFHDILIRKFDRQGRGQIAFDDFIQGCIVLQRLTDIFRRYDTDQDGWIQVSYEQYLSMVFSIV
binds	AKR1D1 (natural protein, human, UniProt P51857 1-326, looked up, AKR1D1; protein on the human proteome microarray; source: spotted on the HuProt human proteome microarray) MDLSAASHRIPLSDGNSIPIIGLGTYSEPKSTPKGACATSVKVAIDTGYRHIDGAYIYQNEHEVGEAIREKIAEGKVRREDIFYCGKLWATNHVPEMVRPTLERTLRVLQLDYVDLYIIEVPMAFKPGDEIYPRDENGKWLYHKSNLCATWEAMEACKDAGLVKSLGVSNFNRRQLELILNKPGLKHKPVSNQVECHPYFTQPKLLKFCQQHDIVITAYSPLGTSRNPIWVNVSSPPLLKDALLNSLGKRYNKTAAQIVLRFNIQRGVVVIPKSFNLERIKENFQIFDFSLTEEEMKDIEALNKNVRFVELLMWRDHPEYPFHDEY
binds	RAB2B (natural protein, human, UniProt Q8WUD1 1-216, looked up, RAB2B; protein on the human proteome microarray; source: spotted on the HuProt human proteome microarray) MTYAYLFKYIIIGDTGVGKSCLLLQFTDKRFQPVHDLTIGVEFGARMVNIDGKQIKLQIWDTAGQESFRSITRSYYRGAAGALLVYDITRRETFNHLTSWLEDARQHSSSNMVIMLIGNKSDLESRRDVKREEGEAFAREHGLIFMETSAKTACNVEEAFINTAKEIYRKIQQGLFDVHNEANGIKIGPQQSISTSVGPSASQRNSRDIGSNSGCC
